Like-named read-outs stand apart in the source and are kept apart here.
What was measured:
[1] = molecular target: IL-2Rβγ (as a pre-assembled heterodimer); test: Binding affinity to rat IL-2Rβγ
[2] = Nonclinical pharmacokinetics in mice; format: in vivo
Experimental: (§1) Various in vitro and in vivo studies were conducted to characterize the PK of BMS-986326 in the nonclinical setting.

[3] = Nonclinical pharmacokinetics in monkeys; format: in vivo
Experimental: as §1

rats and monkeys = test: Toxicity studies in rats and monkeys: common PD and safety findings; format: in vivo; conditions: GLP pivotal nonclinical studies
Source text: (§2) The single- and repeat-dose toxicity of BMS-986326 were characterized in a series of studies in rats for up to 2 weeks and in monkeys up to 12 weeks using selected dosing frequencies. Pivotal good laboratory practice (GLP) repeat-dose studies in both species employed SC administration of BMS-986326 and consisted of two 2-week studies in rats using differing dose frequencies (once weekly [QW] vs twice weekly [2QW]), a 2-week once weekly dosing study in monkeys, and a 12-week (once every 3 week, Q3W) dosing study in monkeys. In addition, single-dose exploratory studies were initially completed in both rats and monkeys to explore the tolerability of BMS-986326, and a single-dose GLP IV toxicity and cardiovascular safety study was also completed in telemeterized monkeys using IV dosing to support IV administration in the first-in-human (FIH) single-ascending dose (SAD) study (IM034001).
Intended and unintended PD effects occurred in a dose-dependent manner across all doses of each toxicity study and were generally more pronounced in monkeys than in rats. As an IL-2R agonist, BMS-986326 induced maximal phosphorylation of STAT5 in Treg cells (72% to 95%) across all doses in rats and monkeys, increased Treg cells (up to 63× in monkeys) and/or CD25 expression on CD4 Tregs (up to 4.5× in rats), and raised serum levels of IL-10 (up to 2× in rats and 87× in monkeys). […]

monkeys [4] = test: Pivotal single-dose IV toxicity and cardiovascular safety study in monkeys; format: in vivo
Source text: as §2
Microscopically, there were dose-dependent multisystemic infiltrates of eosinophils and mononuclear cells in some tissues.

monkeys [5] = test: 12-week monkey toxicity study, SC Q3W
Experimental: In the 12-week monkey study, dose range and frequencies were reduced compared to the 2-week study with BMS-986326 administered at 0.0625, 0.125, or 0.25 mg/kg SC Q3W (Days 1, 22, 43, and 64).

monkeys [6] = conditions: monkey, in vivo, sc
monkeys [7] = conditions: monkey, in vivo
monkeys [8] = test: 2-week toxicity study in monkeys, weekly SC
monkeys [9] = test: Single-dose exploratory tolerability PK/PD study, SC, monkeys

BMS-986326: recombinant fusion protein of human IL2 and extracellular domain of human CD25, (GGGS)3 linker, non-covalent self-blocking homodimer
Kd [1]: > 4 µM | total serum clearance (CLTs) [2]: 3.25 mL/h/kg | steady-state volume of distribution (Vss) ([2]; IV): 0.0954 L/kg | absolute bioavailability ([2]; SC dosing): 58% | apparent elimination half-life (T-HALF) ([2]; SC dosing): 1.18 days | time of maximum concentration (Tmax) ([2]; SC dosing): 7 h | total serum clearance (CLTs) [3]: 0.769 mL/h/kg | steady-state volume of distribution (Vss) ([3]; IV): 0.0734 L/kg | absolute bioavailability ([3]; SC dosing): 46% | apparent elimination half-life (T-HALF) ([3]; SC dosing): 3.30 days | time of maximum concentration (Tmax) ([3]; SC dosing): 24 h | capillary leak syndrome (CLS) (rats and monkeys): has not been observed | blood pressure, CLS-like effects, hemodynamic and electrocardiographic parameters (monkeys [4]; monkey, in vivo, iv): no decreases in blood pressure, CLS-like effects, or other effects on hemodynamic or electrocardiographic parameters | increase in eosinophils (monkeys [4]; monkey, in vivo, iv): up to 91.6 × | mean AUC [0-336 h] across all doses (monkeys [4]; monkey, in vivo, iv): ≤ 757 µg·h/mL | increased heart rate relative to baseline (monkeys [4]; monkey, in vivo, iv, 0.5 mg/kg): 4% | transient increase in mean body temperature (monkeys [4]; monkey, in vivo, iv, 0.5 mg/kg): up to 1.1 °C | clinical tolerability (monkeys [4]; monkeys, single IV 0.05, 0.15 or 0.5 mg/kg): clinically well tolerated at all doses | no-observed-adverse-effect level (NOAEL) (monkeys [4]; monkeys, single IV dose): 0.5 mg/kg | NOAEL AUC[0-336 hours] (monkeys [4]; single-dose monkey toxicology study): ≤ 757 μ·h/ml | NOAEL AUC[0-504 hours] (monkeys [5]; 12-week (once every 3 weeks) SC monkey toxicology study): ≤ 306 μ·h/ml | magnitude of increase in Tregs relative to increase in conventional T cells (monkeys [5]; 12-week monkey study, Q3W, across the dose range): ≤ 2 times | eosinophilic or mononuclear cell infiltration into other tissues (monkeys [5]; monkey, in vivo, sc): no eosinophilic or mononuclear cell infiltration into other tissues | NOAEL (monkeys [5]; monkeys, 12-week SC Q3W): 0.25 mg/kg/dose | mean AUC at NOAEL (monkeys [5]; monkeys, […] Q3W): 306 µg·h/mL | AUC (monkeys [6]; 0.075 mg/kg): approximately 48 μg·h/mL | AUC (monkeys [6]; 0.75 mg/kg): ~407 µg·h/mL | AUC[INF] (monkeys [6]; 0.75 mg/kg): 407 µg·h/mL | decreased platelets (monkeys [7]): 0.9-0.6 | decreased red cell mass versus pretest (monkeys [7]): 0.9-0.6 | doses with adverse inflammation in eye choroid and choroid plexus of brain (monkeys [7]): ≥ 0.25 mg/kg/week | increased liver weights (monkeys [7]): 16-75% | number of tissues affected by mixed cell inflammation (monkeys [7]): 16-28 | clinical signs (monkeys [7]; 0.75 mg/kg): adverse clinical signs of toxicity | increased heart rate (monkeys [7]; 0.75 mg/kg): 25-28% | mean AUC[0-168 h] (monkeys [7]; 0.75 mg/kg): ≥ 601 µg·h/mL | mean AUC[0-168 h] at NOAEL (monkeys [8]; 0.125 mg/kg/week): 132 µg·h/mL | NOAEL (monkeys [8]; 2-week weekly SC): 0.125 mg/kg/week | clinically tolerated doses (monkeys [8]; weekly SC, 2 weeks): ≤ 0.25 mg/kg | expansion and proliferation of Tconv and CD8+ T cells (monkeys [9]; 2 highest doses tested): dose-dependent expansion and proliferation | fold increase of % Treg above pre-dose at peak (monkeys [9]; single SC […]): 4.8 fold | dose not tolerated (monkeys [9]; single SC dose): 2.5 mg/kg | well tolerated doses (monkeys [9]; single SC dose): up to 0.75 mg/kg

Reference: patent US20240325495A1, “FUSION PROTEINS FOR THE TREATMENT OF DISEASE” (Bristol-Myers Squibb Company, priority 2020, published 2024)
